The values below come from a protein production outcome set (Wang et al. 2014).

The nature of the data set: label from the status in PepcDB records.

Turning to “MEYALLQHYWWFLVSLLGALLVFLLFVQGGQSFLFSLGKDELTQKMMVNSTGRKWEFTFTTLVTFGGALFASFPLFYSTSFGGAYWVWMLILFCFIIQAVSYEYQSKHGNVWGRKTYQILLFINGVLAPVLLGTAVSTFFTGSSFVVNKMAMFDLSGGNQIVSAWQPFNGWQLRGLEAVLNLWNVVLGLAVFFLARVSALLYFINNIDDESLYAAAKRRLWANTVAFLIFFLAYIAFLLTTEGFAVNPVSKEVYMEPYKYLYNFLDMPAVLAVFLLGVILVLGGIGLTLLRKGFKRGIWLHGTGTVLTVLALLLVAGWNDTSWYPSTYDLQSSLTIENASSSHFTLKVMSYVSLLIPFVLAYIFYAWRALDIRKITKKEMEQDDHVY”, the protein production entry is recorded as “failed”.

Take “MFCEKAMELIRELHRAPEGQLPAFNEDGLRQVLEEMKALYEQNQSDVNEAKSGGRSDLIPTIKFRHCSLLRNRRCTVAYLYDRLLRIRALRWEYGSILPNALRFHMAAEEMEWFNNYKRSLATYMRSLGGDEGLDITQDMKPPKSLYIEVRCLKDYGEFEVDDGTSVLLKKNSQHFLPRWKCEQLIRQGVLEHILS”: the protein production result was “failed”.

“MFCLMSKEYLSWDKFIVTKIPSSVKLDPIIYEYIKKDHLILDIGCGVGKVSLQLAFQGFYVEGIDINETGILAAQDSARKLNLADKAHFRVGDAKDLPYMDDKFDIVIMHGLLTIIVDNSDRNKIIQEAYRVLNPEGHLYIVDFGQTWHSDIYRERYLKDFPITKEEGSFLVYNKDTGEIEFISHHYTEKELIFLLVNNGFKIDYFRDFLLFSGFSFSLYIVQNNKILIILIYFFYLWEKETLQ”: the protein production entry is “failed”.

“MFDIGWSELLVIAVVLIVVVGPKDLPPMIRAFGKTMAGLRKMAGDFRTQFDEALKEADMDDVRQTISDVRNLNPTNSLRDAMNPLRQLGNEIKSDLQKATSPSDGLSSTAAPATSEPVAPLVNVPEPDMKLPDSPPAVAAAPAPVAAASVAAEKPKRARAKSIATVEAEAVAAKPKRVSRSKAVATPETTVATNASEPASPKPTVKTIAKKATVKKIAAEKSVAVADAKPAKAARTKAAKPKKDEA”: the protein production entry was “failed”.

Regarding “MFDPKLLPATRKILDLPARLLVRVGVSADQVTITGFIIGLLAVPFLAFELYEFALAAILLNRLCDGLDGAVARRTQLTDAGGFLDIVLDFIFYSAVVFGFLLASPEQNAIASGLLLVTFMGTGSTFLAFACIAGKRGIENPEYPNKSLHYMGGLTEGFETILAFVAFCLWPQHFSVLAYIFAAACWLTAITRIVAGYRTLKQPGAKPESTNV”, the protein production entry was “not failed”.

On to “MFDRLKTMLIKEAIQILRDPKMRFIILVIPAIQITLFGYAVNTDVKHIATAVYDLDNSALSRDLVARLERSGYFDIVQRVQRGDELRDLLDRGKVRAAVQINRGFEENIRAGRTATLPIIVDGTDPSTARIVVSYSVTIAERFSDQILTDYSLRKSGRTTGGNGIELESRAWFNANLESRNYYVPGVIASMVLITTMMLSSMAVVREKEIGTMEQIIVTPIQRWEFIVGKLVPFAIVGYINVTIVTCIALFWFKIPLRGSILLLIGSTALFLMSTLGFGLLISTISRTQQQAMMSSFMFTFPAMLLSGFAFPIENMPTSIQYATYLNPLRYYLVIVRGIFLKGIGLGILWPQLAALALLGSVVLLFAVGRFKKSVG”, for which the protein production result is listed as “failed”.

On to “MFDVAVFGSLFLTLFVIMDPPGITPIFLALTAGRPAKVQKRMAFQAVCVAGGVITVFGLLGHQILDYLHVSVPALMIAGGLLLLLIALDLLTGKTDEPKQTKDVNVALVPLGMPLLAGPGAIVSVILAVQKAGSVATQVSVWAAILAIHVVLWVVMRYSLLIIRVIKDGGVVLVTRLAGMMLSAIAVQQIINGVTQVIRGS”, for which the protein production result was “failed”.
